In the domain aggregation screens of Martell et al. (2025):

Test: soluble fraction after stress (log2 fold change); higher = more stays soluble; pooled small domains, quantitative proteomics
Details: stress: pH 4
How it was run: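 Aggregation propensity is estimated from the fold change in each domain's soluble amount after acid stress. Pooled small-domain libraries were stressed at pH 4, and higher log2 values mean more stayed soluble.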

First: HMNYEFLEKIGFSSNEAKVYGTLIKHKVLNGYEIAKLSGVARSLVYEVINRLVAKGAVIRIDGEPNFYKP
Second: HMNYHDTLSYLMDAFGGADNLQKLLGVGPSALSNYRRREHLPLNQARKLSNIAPEFGFNLDPYTLKISVID
The “soluble fraction (log2)” value of the first is higher: -0.236 for the first, -0.588 for the second.

Compared with “HMNYKLESYLKKVDDQLNFIPVSDKADILSELKNTFYERLLNGQTEEEILDEMESPRELALSYMSES”, “HMNYTYTVPEGIRYLRADKALALAFPDHSRTALQRAFDSGLVTLRGVAIKRDQSVTALDTLEFAMPDI” is higher in “soluble fraction (log2)” value: -1.38 for the first, -0.675 for the second.

“HMNYVFVLNEHGVRQTSYVVGLHADTLEKTEKLAKQTYPTSTIISGDSEMQSQFISGKAYVNGEFVDP” and “HMPAFWILAVLAGGRRHGYQIMREAALSSEGLVTLKPTTLYAALERLERDGAIQQDGEEIVDGRVRRYYRI” are within 0.2 log units of each other in “soluble fraction (log2)” value: -0.192 for the first, -0.305 for the second.

Compared with “HMPAKDAEFTAFVRSATPTLTRTAYLLTGDRETASDLVQEAFVRTYLAWRRVRPEEATAYTRRVLVN”, “HMPAPMISIQLNGEPRNVQPGISIAALVREIGLEPAKVAVERNREIVPRSTLGDVLIEAGDQLEIVHFVG” is lower in “soluble fraction (log2)” value: 0.22 for the first, 0.0156 for the second.

Compared with “HMPAQPEPYNNLARLYSAQGKLDQAASLLRAGLYTDPAYRALFDNLTRIYAEQAARSLSAALD”, “HMPASDPNEKQILRFLTEHQVITRKETQALLDVSQSTAGRVLKAMVDNGQIKQLGGSRNTRYELPM” is higher in “soluble fraction (log2)” value: -0.879 for the first, 0.149 for the second.

“HMPASGISSEIIYDGILIEENLRQLKKDKAWLMDQLKKKGISSVSEVFLATLNKGGSLYIDKY” and “HMPASVSAIRKYLGGGSFKGVGPALAKRIVDAFGEYTIETIENDPKQLAKVKGVSEKMALEINTQ” are within 0.2 log units of each other in “soluble fraction (log2)” value: -0.0537 for the first, 0.112 for the second.

First: HMPAYYQKEAVLDGRASVFAYERDPSSWYFKQLIPGTKKYRTKKIQGATTLEQAKSQALDIALGLRDEP
Second: HMPDDHFIRGYVTAVLEQVLKVPSIQVEVERGVVILRGDLPGEERQELLDAVSRIHGVARVEYIPL
The “soluble fraction (log2)” value of the first is higher: 0.243 for the first, -0.281 for the second.

Going from “HMPDLSGEEQQIVDILAQRGNLQINTLVVETDIPVHKMNAILFELEMKGVVRVLAGGMYQLL” to “HMPDPLVEIRSAVHSNYAGMIAMLGADNRVYLGREEHYSYQDGQPGQYDNRDGSLLFVSDQPDIYYFL”, the “soluble fraction (log2)” value falls from -0.561 to -1.21.

“HMPEAITLRDLKTYSKQAASGYLDDHQLVLVEKEAHSEDVPEGQVIKQKPGAGASVKPGDKVEVTFSLGPE” and “HMPEKKKYGDFVSMTEEEYGKLVSEYGQEAAKRMVEILNNYKGATGKPYKSDYLAILNWVVKRIKEE” are within 0.2 log units of each other in “soluble fraction (log2)” value: 0.22 for the first, 0.077 for the second.

Compared with “HMPELFLFNPDTASAATFQALGFSARQAGVLIHFREALGGRFGSVEQFSKSYVVDSATLERLRPYMVF”, “HMPEMHIYTKEGKIHITHIDENEEIKIYNPLGQIIYTGSPQDIPVLEGKGLYIIYIGKSAVEVLES” is lower in “soluble fraction (log2)” value: -0.029 for the first, -0.624 for the second.

Going from “HMPENESPEEKHARFRRFAEGLMARLDENESVRDILPELKVWLDDRELDRDDQRLARNLMLTAGKRE” to “HMPEPLTARETEVLRLLSGGYSNREIAAAMFLAEGTIKNHVSAVLLKLGVRDRTRAVLRGLELGLIQ”, the “soluble fraction (log2)” value falls from -0.0664 to -1.4.

“HMPEPPRVGETLAALRQDRALSLDELSRQAGVSKSMLSQIERNQANPTVAVVWRLANALGVPMAELLGA” and “HMPGDIRKAAILLMSLPREQAAQVLARLDPKQVEAVTIEIARLGTVTPDEQEQALKEFSQANPA” are within 0.2 log units of each other in “soluble fraction (log2)” value: -0.192 for the first, -0.141 for the second.

First: HMPGIDDAAVEHAERVLAQHIGPMARLLVRRTVPRAANLFDLHRRLGALIPESEPRTAFLSAVVT
Second: HMPGLSQAEAQSLLIAYLAQQGRTLELIPLGQSGDVWRFSGRESDGTVVSFFMVSRTDGTISEVPVPP
The “soluble fraction (log2)” value of the first is higher: 0.0209 for the first, -0.992 for the second.

“HMPGRLSRREVEVIELTARGLPAAEMAVRLGISANTIEFHRRRIMQKLGVANAAEMVRRATELGW” and “HMPGRVITVMVNGKRVDLPFREEPYIFVDLFRYMDFDVERARGRIQLAINGKKAGYTDIIREGDSIEI” are within 0.2 log units of each other in “soluble fraction (log2)” value: -0.905 for the first, -1.02 for the second.

Going from “HMPGTAAQARQLKAWLKENGEKPGAALPALQKAQEIYGYVPREVQQLIADALHKPLTEIYGVSTFYSQFNL” to “HMPGTPADQVAELQTKVGTETKTGDMITQDDVKLLQTALDPLAKMNDRIQAAKILESKGIVTSDGNLRT”, the “soluble fraction (log2)” value rises from -0.326 to 0.0934.

Going from “HMPIGENIKRLRIMHGLSQKELAQIAGVSDKAVSTWENGTKEPRMGAVQKITGYFGLKKSNLIEDNGL” to “HMPIMDSDDKYEALGIPQEWIAVVKKAGYQTVEALKAVENPNKLHQELSVMNKKEKLGLAGLTPEMVKAWL”, the “soluble fraction (log2)” value falls from 0.0537 to -0.301.

First: HMPINPKVKQIYDTLKDGGADVGSEKEFNDYFFAKGKDGYNNRKEVFNTLREGGADAGKSYEEFAGWLGL
Second: HMPIPIESEISRSPGQSIYAFVQQHYGRSGRSPADMRALVGLILRLNRQIRTPLLIPFGLVVVRPT
The “soluble fraction (log2)” value of the first is higher: 0.206 for the first, -0.253 for the second.

Going from “HMPIRVGDAFESLAGVFPDEYNKALRKSTKKPVFFVPVKVEAGSGALRQKGKITFIVKDGRIDAIQIAL” to “HMPISQGATVKHNANMRKGASTKYKVTGVLQEGEEVKILSQSNGWYKIQNSDNEKGWTYNTHINASDK”, the “soluble fraction (log2)” value rises from -0.514 to -0.0274.

Compared with “HMPKHFIDFSEGEVVSITDGPFKGFDGAISEIDNQKGKVKVMVSMFGRDTSVELDALQVKKV”, “HMPKITTIHIDPEKISKVIGPGGKTVKKIIEETGAKIDIEDTGKIFIAAVNTEAANKAIDMINGIVA” is higher in “soluble fraction (log2)” value: -0.364 for the first, -0.0168 for the second.

Going from “HMPKLPIIYVLDGHVNKNALTTSGKNKVWIEHELKKHHINSIKDVLIAMTDTEGKFYYQLYD” to “HMPKLSNNHMAVWQAIRSRTAKGEPSTRAVIRDDLKAAGMDTSKHFSRWLTKLIDLGMVVKDGENLSIR”, the “soluble fraction (log2)” value rises from -0.0791 to 0.219.

“HMPKMISPAQIKAIGAKTNNIAKASGVEQAQVYQSAVAHLGINNKSTKELTSQEASKVIEYLSTL” and “HMPKPMKATKITLQQEPRIRVDFTYDPLKVQQIKTISGARWSKSLKAWHIPYTKEAFNQLKKLFPNVEIEV” are within 0.2 log units of each other in “soluble fraction (log2)” value: 0.158 for the first, 0.22 for the second.

“HMPKSVRQSFVYSPMYRDVEYLADFLRNNNKDDSSVSASGDKLVYYGTADEIARVKSVLKGVDV” and “HMPLIPIAIELARHALPSLIGAIAGDKSEKVAKEVVDAALKTTGKTTPDEALHALQADPQLAHEYRLSLL” are within 0.2 log units of each other in “soluble fraction (log2)” value: -0.51 for the first, -0.466 for the second.

“HMPLKLIDVYLGRHGKKRYDVFKETGLSQQTLASANGKPAAALTGRILQAIGRTVGETPGRVLDEMLMIEQ” and “HMPLLADLPNLLRKVLKQHPGRVVDVDLERGRQGREIYHVRVLQENGQVRGLFVDASTGELVS” are within 0.2 log units of each other in “soluble fraction (log2)” value: 0.0887 for the first, 0.0524 for the second.

First: HMPLQLPEPMAELARNGETARLAEALKQGLDIDLRDGKGNTLLMIAAYQGRAETVAMLLKAGA
Second: HMPLSLESVSEGGRNDTAARIAGYLIAKGLNVDFARFFLQSWNTKNKPPLDDTEIDTIVNSIMKTHERKNQ
The “soluble fraction (log2)” value of the first is lower: -1.42 for the first, -0.476 for the second.

“HMPLTPATADAGRFVKQDRKYIRLLAKRYNFTHGDIKSEIDRVSAVLSSNGIDRVPLFLYKEYLEQYLAG” and “HMPLTRSDVKRIQLWLMAHGYDIGSPDGVFGDKSNRAANAFLSQQGRSLETVTLGKLYDILEAN” are within 0.2 log units of each other in “soluble fraction (log2)” value: -0.924 for the first, -0.941 for the second.

“HMPMINLYQRLNLPPTASRAEIEAALAQYRSELSTAEIRGVQEWLLVNEVRHRYDAKLRQEQPSFFI” and “HMPMTLGENIARLRTQKDWSQGDLADALGISRQSISKWETDTSIPELEKLIKLSELFGVTLDQLVRGE” are within 0.2 log units of each other in “soluble fraction (log2)” value: -0.427 for the first, -0.615 for the second.

“HMPNILLSVKDASVAISVSSKMVRLLIASGRLKAVNLGKRMTRISLQELTDFAQRQGGNVVLP” and “HMPNLAAAIGARVTIRLREASGGFRDIVGTLQRFGDGVNELLNSKGQIISFSEDEIAIWREIK” are within 0.2 log units of each other in “soluble fraction (log2)” value: -0.514 for the first, -0.326 for the second.

First: HMPNQIKQIAVNTASVSDIATIPGISFDFAKEIWEFRILRQKIGSLSELQKIEGMTASKYALIELYLHI
Second: HMPNSIKAPAYLHNIARIYDHVLIDVEKASSAYEKLIKKYPNHPLSINAKLYLENAFNRSDEELLNMIKEN
The “soluble fraction (log2)” value of the first is higher: -0.41 for the first, -0.624 for the second.

First: HMPNYVEMLRLHEAGFSLRQIAKLVSSGRNTVTRTVNIAQEKELSYEEIAQWSSEELENMFKPD
Second: HMPPDIKVVGVTVASDPRASFAMLSSNGKTLSYRVNDLIEGTEYHLIKVEAAAITIATAGGQSTQIAF
The “soluble fraction (log2)” value of the first is lower: -0.515 for the first, -0.156 for the second.

Compared with “HMPPFTYHLERAKRKTVGFIVDERGVTVRAPRWVSVSEIEKMLQTKEAWIQKKLTEFHNWQKE”, “HMPPHGHIVELLPEQDFGRIETGDGRLVYFHRNSVLDGDFAQLAVGDAVRFAEEMGERGPQASSVHVE” is lower in “soluble fraction (log2)” value: 0.111 for the first, -0.948 for the second.

First: HMPPLKYLKVKSYLEAVAVKAESAMRMPTVRELMNQFNVSLATVNRALSELENDGVIVRRQGSGIVAAG
Second: HMPPSGPWEQDPPSEAQLKPFNEAMKRTADIDVDLYEKAKKALNDGTITKGNIYDWINREDSPWVLQDGS
The “soluble fraction (log2)” value of the first is higher: ≥ 0.43 for the first, -0.468 for the second.

Compared with “HMPPSQRVNRILSLAGITSRRKADEYILEGRVTVNGEVLKEPGAKAVWGTDDIRVDGKPIPALS”, “HMPPSVAETLKRLRRHKSLSLEELAQMSGVSRSMLSQIERDATNPTVATLWRITAALGVSIDEVLGV” is lower in “soluble fraction (log2)” value: 0.275 for the first, -0.893 for the second.

“HMPPTEQVYRSHVPPQYDGFPIEKYFTTRFSYQDVEEWSRQILAGKIEVNGKTALIGQILSASDLTVTRA” and “HMPQETPIPKSEIQSYDEIWLEPISTDNILRNELRGWYHVKDRWVENEFGNRFYLDTYASKWLAFPS” are within 0.2 log units of each other in “soluble fraction (log2)” value: -0.811 for the first, -0.752 for the second.

“HMPQKIVIQKGVVIKKRERSDAWQIYITVKGKKPIRKSANTDNVEKAKQMALTLFAEKNYKVENNLPIQ” and “HMPQLSNEEQKIVDALEGSDGKQINLITVETNIPMARLMSVLFEMEMRGIVKSLNGARYKLN” are within 0.2 log units of each other in “soluble fraction (log2)” value: -0.0334 for the first, -0.026 for the second.

With “HMPQTDDSEPLGKYGRMRLAYLKNQRPVLYNQMLLNGTLWPHLQDVQKTAYEWLERTMTTLLDK” the “soluble fraction (log2)” value was -0.581.
